Laboratory results published in patent US7410801 (UNIVERSITY OF DELHI DEPARTMENT OF BIOCHEMISTRY, dated 2008).

Target: mesothelin (UniProt Q13421 296-598)
Assay: ELISA, purified phages added to mesothelin coated wells

Chain of mesothelin (Q13421 other isoform, or with tags, fused parts or gaps limits assumed): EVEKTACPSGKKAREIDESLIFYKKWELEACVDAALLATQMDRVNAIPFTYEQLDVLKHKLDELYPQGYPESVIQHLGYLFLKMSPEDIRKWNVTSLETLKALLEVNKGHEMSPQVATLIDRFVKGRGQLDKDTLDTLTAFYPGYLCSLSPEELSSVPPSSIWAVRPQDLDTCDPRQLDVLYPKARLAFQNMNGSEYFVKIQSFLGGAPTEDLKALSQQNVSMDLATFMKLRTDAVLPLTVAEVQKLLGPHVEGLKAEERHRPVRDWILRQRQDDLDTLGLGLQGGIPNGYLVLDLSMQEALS

B1: D-cmyc fusion protein displayed on lambda phage λDcDL1 (other)
chain (part 1 of 2): MTSKETFTHYQPQGNSDPAHTATAPGGLSAKAPAMTPLMLDTSSRKLVAWDGTTDGAAVGILAVAADQTSTTLTFYKSGTFRYEDVLWPEAASDETKKRTAFAGTAISIV
chain (part 2 of 2): EQKLISEEDL
notes: also called DcDL1 phages
binding result: no binding
